# Reference: patent US20240150441A1 (ARIZONA BOARD OF REGENTS ON BEHALF OF ARIZONA STATE …, published 2024)
# B1: plant-made tixagevimab (pTixagevimab) (antibody, V domains shown)
# VH: QMQLVQSGPEVKKPGTSVKVSCKASGFTFMSSAVQWVRQARGQRLEWIGWIVIGSGNTNYAQKFQERVTITRDMSTSTAYMELSSLRSEDTAVYYCAAPYCSSISCNDGFDIWGQGTMVTVSS
# VL: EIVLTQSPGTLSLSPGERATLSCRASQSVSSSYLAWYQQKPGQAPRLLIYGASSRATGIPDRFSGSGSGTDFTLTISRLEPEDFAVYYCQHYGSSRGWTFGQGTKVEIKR
# Legend:
# [1] = target: spike (S) protein of the authentic parental Omicron variant (B.1.1.529) of SARS-CoV-2 (SARS-CoV-2, B.1.1.529 (Omicron) variant, UniProt P0DTC2 14-1273); experiment: cell-based or functional assay
# [2] = target: spike (S) protein of the BA.4/5 SARS-CoV-2 pseudovirus (SARS-CoV-2, Omicron subvariant BA.4/5, UniProt P0DTC2 14-1273); experiment: cell-based or functional assay
binder,measurement,setting,value
B1,"neutralization of authentic B.1.1.529 (Omicron) virus, foci-forming assay, IC50",[1],19.7 µg/mL
same,"neutralization of BA.4/5 pseudovirus, luciferase reporter assay, IC50",[2],26.7 µg/mL
